Test results as given in US20250074949A1 (BRIGHAM AND WOMEN S HOSPITAL, published 2025).

T1: mouse LY6A (mouse, UniProt P05533 27-112)
T1 construct: whole, on cells
T1 sequence: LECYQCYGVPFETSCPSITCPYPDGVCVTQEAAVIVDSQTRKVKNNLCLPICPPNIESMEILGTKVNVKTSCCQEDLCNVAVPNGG

B1: AAV.CPP.16 (other)
chain: MAADGYLPDWLEDNLSEGIREWWALKPGAPQPKANQQHQDNARGLVLPGYKYLGPGNGLDKGEPVNAADAAALEHDKAYDQQLKAGDNPYLKYNHADAEFQERLKEDTSFGGNLGRAVFQAKKRLLEPLGLVEEAAKTAPGKKRPVEQSPQEPDSSAGIGKSGAQPAKKRLNFGQTGDTESVPDPQPIGEPPAAPSGVGSLTMASGGGAPVADNNEGADGVGSSSGNWHCDSQWLGDRVITTSTRTWALPTYNNHLYKQISNSTSGGSSNDNAYFGYSTPWGYFDFNRFHCHFSPRDWQRLINNNWGFRPKRLNFKLFNIQVKEVTDNNGVKTIANNLTSTVQVFTDSDYQLPYVLGSAHEGCLPPFPADVFMIPQYGYLTLNDGSQAVGRSSFYCLEYFPSQMLRTGNNFQFSYEFENVPFHSSYAHSQSLDRLMNPLIDQYLYYLSKTINGSGQNQQTLKFSVAGPSNMAVQGRNYIPGPSYRQQRVSTTVTQNNNSEFAWPGASSWALNGRNSLMNPGPAMASHKEGEDRFFPLSGSLIFGKQGTGRDNVDADKVMITNEEEIKTTNPVATESYGQVATNHQSAQTVSALKAQAQTGWVQNQGILPGMVWQDRDVYLQGPIWAKIPHTDGNFHPSPLMGGFGMKHPPPQILIKNTPVPADPPTAFNKDKLNSFITQYSTGQVSVEIEWELQKENSKRWNPEIQYTSNYYKSNNVEFAVNTEGVYSEPRPIGTRYLTRNL
notes: Whole recombinant AAV particle in the assay; also called Bip2.1 insert TVSALK
B2: AAV.CPP.21 (other)
chain: MAADGYLPDWLEDNLSEGIREWWALKPGAPQPKANQQHQDNARGLVLPGYKYLGPGNGLDKGEPVNAADAAALEHDKAYDQQLKAGDNPYLKYNHADAEFQERLKEDTSFGGNLGRAVFQAKKRLLEPLGLVEEAAKTAPGKKRPVEQSPQEPDSSAGIGKSGAQPAKKRLNFGQTGDTESVPDPQPIGEPPAAPSGVGSLTMASGGGAPVADNNEGADGVGSSSGNWHCDSQWLGDRVITTSTRTWALPTYNNHLYKQISNSTSGGSSNDNAYFGYSTPWGYFDFNRFHCHFSPRDWQRLINNNWGFRPKRLNFKLFNIQVKEVTDNNGVKTIANNLTSTVQVFTDSDYQLPYVLGSAHEGCLPPFPADVFMIPQYGYLTLNDGSQAVGRSSFYCLEYFPSQMLRTGNNFQFSYEFENVPFHSSYAHSQSLDRLMNPLIDQYLYYLSKTINGSGQNQQTLKFSVAGPSNMAVQGRNYIPGPSYRQQRVSTTVTQNNNSEFAWPGASSWALNGRNSLMNPGPAMASHKEGEDRFFPLSGSLIFGKQGTGRDNVDADKVMITNEEEIKTTNPVATESYGQVATNHQSAQTVSALFKAQAQTGWVQNQGILPGMVWQDRDVYLQGPIWAKIPHTDGNFHPSPLMGGFGMKHPPPQILIKNTPVPADPPTAFNKDKLNSFITQYSTGQVSVEIEWELQKENSKRWNPEIQYTSNYYKSNNVEFAVNTEGVYSEPRPIGTRYLTRNL
notes: Whole recombinant AAV particle in the assay; also called Bip2.6 insert TVSALFK

Target: T1, mouse LY6A
Assay: AAV binding to LY6A-transfected HEK293T cells on ice, bound viral genomes counted by qPCR

Row | Binder | binding result
1 | B1 | no binding (tested: MOI of 10000)
2 | B2 | no binding (tested: MOI of 10000)
